The target of this experiment is ectodomain of the S protein of SARS-CoV-2 B.1.1.7 (S-UK) (SARS-CoV-2) (UniProt P0DTC2). The experiment in a line: cryo-EM structure.

A word on the stoichiometry N: it is a count of units in the complex or per binding partner.

Consider “ectodomain of the S protein of SARS-CoV-2 B.1.1.7 (S-UK) (from UniProt P0DTC2 14-1208) (domain or fragment)”, for which the stoichiometry N was 3 protomers.

(Values after doi:10.1101/2021.05.11.443686.)
